Assay results published in patent US20220395548A1.

How the values were obtained:
[1] = target: gp120 of HIV-1NL4-3 (on virus particles) (HIV-1 (NL4-3)); assay: immunoblot with 2G12, band value, 5th column: Day 8, + MoMo30 by the order of the lanes above
[2] = target: gp120 of HIV-1NL4-3 (on virus particles) (HIV-1 (NL4-3)); assay: immunoblot with 2G12, band value, 6th column: Day 12, + MoMo30 by the order of the lanes above
[3] = target: gp120 of HIV-1NL4-3 (on virus particles) (HIV-1 (NL4-3)); assay: immunoblot with 2G12, band value, 4th column: Day 5, + MoMo30 by the order of the lanes above
[4] = target: gp120 of HIV-1NL4-3 (on virus particles) (HIV-1 (NL4-3)); assay: immunoblot with 2G12, band value, 1st column: Day 5, - MoMo30 by the order of the lanes above
[5] = target: gp120 of HIV-1NL4-3 (on virus particles) (HIV-1 (NL4-3)); assay: immunoblot with 2G12, band value, 3rd column: Day 12, - MoMo30 by the order of the lanes above
[6] = target: gp120 of HIV-1NL4-3 (on virus particles) (HIV-1 (NL4-3)); assay: immunoblot with 2G12, band value, 2nd column: Day 8, - MoMo30 by the order of the lanes above

monoclonal antibody 2G12 (AIDS reagent program; cat #1476)
gp120 (row of the table under the blot) [1]: 51 | gp120 (row of the table under the blot) [2]: 16 | gp120 (row of the table under the blot) [3]: 87 | gp120 (row of the table under the blot) [4]: 65 | gp120 (row of the table under the blot) [5]: 100 | gp120 (row of the table under the blot) [6]: 51
